# Laboratory results reported in article PMC6402485 (Biochemistry, 2013).
# Where two headings read alike, the source gives them in different places.
# Legend:
# native MS [1] = molecular target: the molecule itself; assay: native MS
# native MS [2] = molecular target: the molecule itself; assay: native MS; remark: listed apart in the source
protein,measurement,setting,value
"Wild type SgrAI ENase (enzyme, Streptomyces griseus) PFTYSIEATRNLATTERCIQDIRNAPVRNRSTQFQLAQQNMLAYTFGEVIPGFASAGINGMNYRDVIGRPVENAVTEGTHFFRDDFRVDSNAKAKVAGDIFEIVSSAVMWNCAARWNSLMVGEGWRSQPRYSRPTLSPSPRRQVAVLNLPRSFDWVSLLVPESQEVIEEFRAGLRKDGLGLPTSTPDLAVVVLPEEFQNDEMWREEIAGLTRPNQILLSGAYQRLQGRVQPGEISLAVAFKRSLRSDRLYQPLYEANVMQLLLEGKLGAPKVEFEVHTLAPEGTNAFVTYEAASLYGLAEGRSAVHRAIRELYVPPTAADLARRFFAFLNERMELVNG",stoichiometry N,native MS [1],38
same,stoichiometry N,native MS [2],2
